B1: peptide HD2 (from tick evasin EVA4) / CCL17 (biotinylated, synthetic) (parent complex)
chain 1: EEDDYTAYAPLTCYFT
chain 2: ARGTNVGRECCLEYFKGAIPLRKLKTWYQTSEDCSRDAIVFVTVQGRAICSDPNNKRVKNAVKYLQSLERS
B2: peptide HD2 (from tick evasin EVA4) / CCL19 (biotinylated, synthetic) (parent complex)
chain 1: EEDDYTAYAPLTCYFT
chain 2: GTNDAEDCCLSVTQKPIPGYIVRNFHYLLIKDGCRVPAVVFTTLRGRQLCAPPDQPWVERIIQRLQRTSAKMKRRSS

Variants of: B1

In order of falling enrichment:
1. chain 1 A7R  3.96 log2 (difference from the parental peptide)
2. chain 1 A7K  3.56 log2 (difference from the parental peptide)
3. chain 1 L11R  3.2 log2 (difference from the parental peptide)
4. chain 1 L11M  3.11 log2 (difference from the parental peptide)
5. chain 1 T6S  2.6 log2 (difference from the parental peptide)
6. chain 1 L11H  2.36 log2 (difference from the parental peptide)
7. chain 1 T6G  2.24 log2 (difference from the parental peptide)
8. chain 1 A7Q  1.91 log2 (difference from the parental peptide)
9. chain 1 T6D  1.63 log2 (difference from the parental peptide)
10. chain 1 T6E  1.53 log2 (difference from the parental peptide)
11. chain 1 A7P  1.3 log2 (difference from the parental peptide)
12. chain 1 T16Q  1.17 log2 (difference from the parental peptide)
13. chain 1 T16E  1.12 log2 (difference from the parental peptide)
14. chain 1 A7H  1.03 log2 (difference from the parental peptide)
15. chain 1 T6N  0.737 log2 (difference from the parental peptide)
16. chain 1 L11C  0.521 log2 (difference from the parental peptide)
17. chain 1 T16L  0.451 log2 (difference from the parental peptide)
18. chain 1 F15I  0.435 log2 (difference from the parental peptide)
19. chain 1 T6Q  0.398 log2 (difference from the parental peptide)
20. chain 1 T6W  0.392 log2 (difference from the parental peptide)
21. chain 1 T12L  0.297 log2 (difference from the parental peptide)
22. chain 1 T6K  0.208 log2 (difference from the parental peptide)
23. chain 1 T16K  0.193 log2 (difference from the parental peptide)
24. chain 1 E1S  0.17 log2 (difference from the parental peptide)
25. chain 1 T16N  0.157 log2 (difference from the parental peptide)
26. chain 1 E1Q  0.156 log2 (difference from the parental peptide)
27. chain 1 T16H  0.123 log2 (difference from the parental peptide)
28. chain 1 T12F  0.112 log2 (difference from the parental peptide)
29. chain 1 E1Y  -0.248 log2 (difference from the parental peptide)
30. chain 1 A7L  -0.26 log2 (difference from the parental peptide)
31. chain 1 Y14F  -0.272 log2 (difference from the parental peptide)
32. chain 1 E1H  -0.323 log2 (difference from the parental peptide)
33. chain 1 E1T  -0.325 log2 (difference from the parental peptide)
34. chain 1 D4E  -0.373 log2 (difference from the parental peptide)
35. chain 1 E2Q  -0.416 log2 (difference from the parental peptide)
36. chain 1 E2A  -0.532 log2 (difference from the parental peptide)
37. chain 1 T16F  -0.625 log2 (difference from the parental peptide)
38. chain 1 E1K  -0.679 log2 (difference from the parental peptide)
39. chain 1 A9S  -0.697 log2 (difference from the parental peptide)
40. chain 1 F15S  -0.792 log2 (difference from the parental peptide)
41. chain 1 T16Y  -0.84 log2 (difference from the parental peptide)
42. chain 1 F15D  -0.947 log2 (difference from the parental peptide)
43. chain 1 Y14W  -0.976 log2 (difference from the parental peptide)
44. chain 1 L11F  -0.993 log2 (difference from the parental peptide)
45. chain 1 E2V  -1.03 log2 (difference from the parental peptide)
46. chain 1 F15E  -1.17 log2 (difference from the parental peptide)
47. chain 1 T16W  -1.23 log2 (difference from the parental peptide)
48. chain 1 E1P  -1.24 log2 (difference from the parental peptide)
49. chain 1 E2R  -1.35 log2 (difference from the parental peptide)
50. chain 1 A7T  -1.52 log2 (difference from the parental peptide)
51. chain 1 A7Y  -1.58 log2 (difference from the parental peptide)
52. chain 1 E2L  -1.6 log2 (difference from the parental peptide)
53. chain 1 F15W  -1.65 log2 (difference from the parental peptide)
54. chain 1 E1R  -1.72 log2 (difference from the parental peptide)
55. chain 1 D3N  -1.74 log2 (difference from the parental peptide)
56. chain 1 E1F  -1.75 log2 (difference from the parental peptide)
57. chain 1 A9Q  -1.77 log2 (difference from the parental peptide)
58. chain 1 T12R  -1.85 log2 (difference from the parental peptide)
59. chain 1 E1W  -2.36 log2 (difference from the parental peptide)
60. chain 1 E2P  -2.4 log2 (difference from the parental peptide)
61. chain 1 C13I  -2.82 log2 (difference from the parental peptide)
62. chain 1 Y14I  -2.85 log2 (difference from the parental peptide)
63. chain 1 T6F  -2.91 log2 (difference from the parental peptide)
64. chain 1 D3P  -2.92 log2 (difference from the parental peptide)
65. chain 1 Y14H  -3.18 log2 (difference from the parental peptide)
66. chain 1 T12C  -3.34 log2 (difference from the parental peptide)
67. chain 1 D3K  -3.46 log2 (difference from the parental peptide)
68. chain 1 Y14V  -3.57 log2 (difference from the parental peptide)
69. chain 1 D4A  -3.66 log2 (difference from the parental peptide)
70. chain 1 Y5L  -3.76 log2 (difference from the parental peptide)
71. chain 1 D3W  -4.02 log2 (difference from the parental peptide)
72. chain 1 A7I  -4.17 log2 (difference from the parental peptide)
73. chain 1 D3G  -4.23 log2 (difference from the parental peptide)
74. chain 1 Y14M  -4.32 log2 (difference from the parental peptide)
75. chain 1 D3I  -4.4 log2 (difference from the parental peptide)
76. chain 1 A9R  -4.45 log2 (difference from the parental peptide)
77. chain 1 A7V  -4.48 log2 (difference from the parental peptide)
78. chain 1 D3M  -4.48 log2 (difference from the parental peptide)
79. chain 1 A9T  -4.51 log2 (difference from the parental peptide)
80. chain 1 A9N  -4.52 log2 (difference from the parental peptide)
81. chain 1 D4L  -4.56 log2 (difference from the parental peptide)
82. chain 1 T12A  -4.61 log2 (difference from the parental peptide)
83. chain 1 Y14Q  -4.69 log2 (difference from the parental peptide)
84. chain 1 D4G  -4.74 log2 (difference from the parental peptide)
85. chain 1 P10Q  -4.91 log2 (difference from the parental peptide)
86. chain 1 Y5C  -5.02 log2 (difference from the parental peptide)
87. chain 1 A9H  -5.14 log2 (difference from the parental peptide)
88. chain 1 D3V  -5.2 log2 (difference from the parental peptide)
89. chain 1 D4T  -5.39 log2 (difference from the parental peptide)
90. chain 1 A9M  -5.43 log2 (difference from the parental peptide)
91. chain 1 Y5D  -5.57 log2 (difference from the parental peptide)
92. chain 1 Y14S  -5.6 log2 (difference from the parental peptide)
93. chain 1 L11P  -5.62 log2 (difference from the parental peptide)
94. chain 1 C13Y  -5.68 log2 (difference from the parental peptide)
95. chain 1 T12E  -5.73 log2 (difference from the parental peptide)
96. chain 1 Y5H  -5.84 log2 (difference from the parental peptide)
97. chain 1 F15C  -5.94 log2 (difference from the parental peptide)
98. chain 1 D3R  -5.97 log2 (difference from the parental peptide)
99. chain 1 P10Y  -6.08 log2 (difference from the parental peptide)
100. chain 1 T6I  -6.22 log2 (difference from the parental peptide)
101. chain 1 D4H  -6.29 log2 (difference from the parental peptide)
102. chain 1 C13L  -6.33 log2 (difference from the parental peptide)
103. chain 1 Y14G  -6.43 log2 (difference from the parental peptide)
104. chain 1 Y14A  -6.44 log2 (difference from the parental peptide)
105. chain 1 Y5V  -6.56 log2 (difference from the parental peptide)
106. chain 1 C13P  -6.7 log2 (difference from the parental peptide)
107. chain 1 A9L  -7.01 log2 (difference from the parental peptide)
108. chain 1 Y14K  -7.27 log2 (difference from the parental peptide)
109. chain 1 Y14P  -7.37 log2 (difference from the parental peptide)
110. chain 1 C13E  -7.45 log2 (difference from the parental peptide)
111. chain 1 P10F  -7.51 log2 (difference from the parental peptide)
112. chain 1 D4W  -7.69 log2 (difference from the parental peptide)
113. chain 1 P10T  -7.97 log2 (difference from the parental peptide)
114. chain 1 A9F  -8.26 log2 (difference from the parental peptide)
115. chain 1 L11G  -8.35 log2 (difference from the parental peptide)
116. chain 1 Y8S  -8.85 log2 (difference from the parental peptide)
117. chain 1 C13R  -10.7 log2 (difference from the parental peptide)

Variants of: B2

In order of falling enrichment:
1. chain 1 A7D  2 log2 (difference from the parental peptide)
2. chain 1 L11I  1.76 log2 (difference from the parental peptide)
3. chain 1 T6M  1.73 log2 (difference from the parental peptide)
4. chain 1 E1Y  1.7 log2 (difference from the parental peptide)
5. chain 1 E1D  0.567 log2 (difference from the parental peptide)
6. chain 1 E2V  0.565 log2 (difference from the parental peptide)
7. chain 1 Y8W  0.479 log2 (difference from the parental peptide)
8. chain 1 T12H  0.389 log2 (difference from the parental peptide)
9. chain 1 T6S  0.379 log2 (difference from the parental peptide)
10. chain 1 T16M  0.0438 log2 (difference from the parental peptide)
11. chain 1 L11W  -0.0314 log2 (difference from the parental peptide)
12. chain 1 E2T  -1.16 log2 (difference from the parental peptide)
13. chain 1 Y8F  -1.35 log2 (difference from the parental peptide)
14. chain 1 T16A  -1.59 log2 (difference from the parental peptide)
15. chain 1 D4L  -2.61 log2 (difference from the parental peptide)
16. chain 1 T6R  -3.39 log2 (difference from the parental peptide)
17. chain 1 L11R  -3.8 log2 (difference from the parental peptide)
18. chain 1 A9N  -3.82 log2 (difference from the parental peptide)
19. chain 1 A9I  -3.88 log2 (difference from the parental peptide)
20. chain 1 E1K  -4.04 log2 (difference from the parental peptide)
21. chain 1 T16G  -4.08 log2 (difference from the parental peptide)
22. chain 1 F15K  -4.98 log2 (difference from the parental peptide)
23. chain 1 Y14K  -5.55 log2 (difference from the parental peptide)
24. chain 1 P10G  -5.73 log2 (difference from the parental peptide)
25. chain 1 E1M  -5.78 log2 (difference from the parental peptide)
26. chain 1 A7G  -5.86 log2 (difference from the parental peptide)
27. chain 1 F15R  -6.02 log2 (difference from the parental peptide)
28. chain 1 D3G  -6.43 log2 (difference from the parental peptide)
29. chain 1 A9S  -6.72 log2 (difference from the parental peptide)
30. chain 1 E1R  -6.95 log2 (difference from the parental peptide)
31. chain 1 Y14R  -7.07 log2 (difference from the parental peptide)
32. chain 1 T6C  -7.51 log2 (difference from the parental peptide)
33. chain 1 Y14L  -9.46 log2 (difference from the parental peptide)
